Biological target: TcpP-HSV (wild type, HSV epitope-tagged TcpP) (V. cholerae) (UniProt P29485)
Assay: […], in 20 mM HEPES pH 7.0, 150 mM NaCl) […]

Chain of UniProt P29485 (P29485 whole entry): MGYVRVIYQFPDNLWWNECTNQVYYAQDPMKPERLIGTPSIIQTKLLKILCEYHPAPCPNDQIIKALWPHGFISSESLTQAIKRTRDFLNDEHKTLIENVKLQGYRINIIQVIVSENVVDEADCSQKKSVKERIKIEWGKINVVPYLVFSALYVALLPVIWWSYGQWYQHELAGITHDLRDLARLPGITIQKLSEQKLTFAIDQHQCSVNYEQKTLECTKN

Q: “ToxR-P101L (chromosomal toxR locus) (natural protein)” was tested. Which percent of wild-type levels of interaction (% of wild-type) did it give?
A: 15
